In this experiment the target is F-actin (phalloidin-stabilized) (UniProt P68139). Put plainly: co-sedimentation; S1 fixed at 1.5 μM, phalloidin-stabilized F-actin 0-4 μM; rigor conditions (no nucleotide); 100 mM NaCl, 200 mM sodium phosphate pH 7, 5 mM MgCl2, 4 mM DTT; 15 min at 4 °C, 70,000 RPM 60 min 4 °C; SDS-PAGE densitometry of pellet, hyperbolic fit; Kd = F-actin concentration at half Bmax; N = 3.

As a reminder, the Kd is the concentration at which binding is half-saturated.

Substance “control myosin subfragment-1 (S1) motor domain, Drosophila indirect flight muscle myosin (domain or fragment)” registered a Kd of 1260 nM. For “R369H myosin subfragment-1 (S1) motor domain, Drosophila indirect flight muscle myosin (domain or fragment)” the value was 1100 nM.

The values are drawn from paper PMC8910226.
